Target: GST-Drak (435-532) (Drosophila melanogaster) (UniProt Q0KHT7)
Assay: pull-down; GST-Drak on glutathione agarose; 100 µl of 0.2-10 µM Filamin fragment, 20 min on ice in 20 mM Tris-HCl pH 7.5, 100 mM NaCl, 1 mM DTT; washed with PBS; stain-free SDS-PAGE, Filamin to Drak band ratio

UniProt Q0KHT7, sequence (Q0KHT7 435-532): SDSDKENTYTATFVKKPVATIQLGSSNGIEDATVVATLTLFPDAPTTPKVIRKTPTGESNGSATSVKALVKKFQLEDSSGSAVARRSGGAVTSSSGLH

fold bound against the wild-type Filamin fragment: 10 fold
Substance: Filamin-open (five-domain Drosophila Filamin fragment Cher15-19openMSR) (domain or fragment)

— publication PMC13225219
